Laboratory results published in patent publication US20090169562A1 (CRUCELL HOLLAND B V, published 2009).

B1: SC06-198 (scFv)
scFv: QLQLQESGPGLVKPSETLSLTCAVSGYSITSGYYWGWVRQPPGKGLEWIGSIYHTGSTYYNPSLKSRVTISVDTSKNQFSLKLNSLTAADTAVYFCASQSPAFDFWGQGTMVTVSSGTGGSGGTGSGTGGSTQSVLTQPPSVSGAPGQRVTISCTGSSSNIGTGYDVHWYQQLPGTAPKLLIYGNNNRPSGVPDRFSGSKSGTSASLAITGLQAEDEADYYCATWDDSLNGWVFGGGTKLTVP
notes: Vl 133-243); also called single-chain phage antibody SC06-198
B2: SC06-246 (scFv)
scFv: EVQLVESGGGLIQPGGSLRLSCAASGFTVSSDFMTWVRQAPGRGLEWVSLIYSGGKTNYADSVKGRFTISRDNSRNTLYLQMNSLRAEDTAVYYCARSVCSTISCSKLDDWGQGTLVTVSSGTGGSGGTGSGTGGSTQAVLTQPSSVSVAPGQTARITCGGNNIGRKSVHWYQQKPGLAPVLVVNDNSDRPSGIPARFSGSNSGNTATLTISRVEAGDEADYYCHVWGSSRDHYVFGTGTKVTVL
notes: Vl 138-245); also called single-chain phage antibody SC06-246
B3: SC06-050 (scFv)
scFv: EVQLVESGPEVKKPGASVKVSCEASGYNLDNYGITWVRQAPGQGLEWLGWISAYNAKTEYGQRLQGRVTMTTDTATSTAYLELRSLRSDDTAVYYCARVLGYRGGWYDEGDAFDVWGQGTMVTVSSGTGGSGGTGSGTGGSTDIQLTQSPSFLSASVGDRVTITCRASQGIRSHLAWYQQKAGKAPKLLIYAASTLQSGVPSRFSGSGSGTEFTLTISSLQPDDFAAYYCQQLNTYPITFGQGTRLEIK
notes: Vl 143-249); also called single-chain phage antibody SC06-050
B4: SC06-409 (scFv)
scFv: EVQLVQSGAEVKKPGESLKISCKGSGYSFTNYWIGWVRQMPGKGLEWMGIIYPGDSDTRYSPSFQGQVTISADKSISTAYLQWSSLKASDTAMYYCARHTQNKNGMNTFDIWGQGTMVTVSSGTGGSGGTGSGTGGSTQSALTQPPSASGSPGQSVTISCTGTSSDIGGYNYVSWYQQHPGKAPKLMIYEVSNRPPGVSNRFSGSKSGNTASLTISGLQAEDEADYYCSSYSTTTTRVIFGGGTKLTVL
notes: Vl 139-249); also called single-chain phage antibody SC06-409
B5: SC06-077 (scFv)
scFv: QVQLVQSGAEVKKPGSSVKVSCKASGGTFSSYAISWVRQAPGQGLEWMGGIIPIFGTANYAQKFQGRVTITADESTSTAYMELSSLRSEDTAVYYCAREGGVGPAFDIWGQGTMVTVSSGTGGSGGTGSGTGGSTDIQMTQSPDSLAVSLGERATINCKSSQSVLHNSNNKNYLAWYQQKPGQPPKLLIYWASTRESGVPDRFSGSGSGTDFTLTISSLQAEDVAVYYCQQYYGSPYTFGQGTKLEIK
notes: Vl 136-248); also called single-chain phage antibody SC06-077
B6: SC06-078 (scFv)
scFv: EVQLVESGAEVKKPGSSVKVSCKASGGTFSSYAISWVRQAPGQGLEWMGGIIPIFGTANYAQKFQGKVTITADESTSTAYMELSSLRSEDTAVYYCARLSPRYYGMDVWGQGTTVTVSSGTGGSGGTGSGTGGSTQSALTQPRSVSGSPGQSVTISCTGTSSDVGGYNYVSWYQQHPGKAPKLMIYGGSERPSGVSNRFSGSKSGNTASLTISGVQAEDEADYYCSSYTSSGTLLFGGGTQLTVL
notes: Vl 136-245); also called single-chain phage antibody SC06-078
B7: SC06-092 (scFv)
scFv: EVQLVESGGGLVQPGRSLRLSCTGSGFTFGDYAMSWFRQAPGKGLEWVGFIRNKAYGGTAEYAASVKDRFIISRDDSKSIAYLQMNSLKTEDTAVYYCVRREYDTGWLDYWGQGTLVTVSSGTGGSGGTGSGTGGSTQSALTQPPSASGSPGQSVTISCTGTSSDVGGYNYVSWYQRHPGKAPKLMIYDVTDRPSGVSNRFSGSKSGNTASLTISGLQAEDEADYYCSSYTSSSTSAVFGGGTKLTVL
notes: Vl 138-248); also called single-chain phage antibody SC06-092
B8: SC06-071 (scFv)
scFv: EVQLVESGGGVVQPGRSLRLSCAASGFTFSSYGMHWVRQAPGKGLEWVAMIWSDGSNKYYADSVKGRFTISRDNSKNTLYLQMNSLRVEDTAVYYCASNYGSGSYWGGFDYWGQGTLVTVSSGTGGSGGTGSGTGGSTQSALTQPASVSGSPGQSITISCTGTSSDVGGYNLVSWYQQHPGKAPKLMIYEGSKRPSGVSNRFFGSKSGDTASLTISGLQAEDEADYYCSSYTTSSTHVFGTGTKVTVL
notes: Vl 139-248); also called single-chain phage antibody SC06-071
B9: SC05-157 (scFv)
scFv: EVQLVESGAEVKKPGESLKISCKGSGYSFTNYWIGWVRQMPGKGLEWMGIVYPGDSDTRYSPSFQGQVTISADKSISTAYLQWSSLKASDTAVYYCARRMAVAGSDAFDIWGQGTMVTVSSGTGGSGGTGSGTGGSTQAVLTQPSSASGTPGQTVTISCSGSTSNIGSHNVNWYQHLPGTAPKLLIYINNKRPSGVPDRFSGSKSGSSASLAISGLQSEDEADYYCAAWDDSLRRPVFGGGTQLTVL
notes: Vl 138-247); also called single-chain phage antibody SC05-157
B10: SC06-191 (scFv)
scFv: EVQLVESGGGVVQPGRSLRLSCVASEFTFSNYGMHWVRQAPGKGLEWVAVIWYDGSNEDYADSVKGRFTISRDNSKNTVYLHMNSLRAEDTAVYFCTRGQYSSTWFLDYWGQGTLVTVSSGTGGSGGTGSGTGGSTDIQLTQSPSTLSASVGDRVTITCRASQSISSWLAWYQQKPGKAPKLLIYKASSLETGVPSRFSGSGSGTDFTLTISSLQPEDFATYYCQQANSFPLTFGGGTKVDIK
notes: Vl 137-243); also called single-chain phage antibody SC06-191
B11: SC06-079 (scFv)
scFv: EVQLVESGGGLVQPGGSLRLSCAASGFTFSSYAMSWVRQAPGKGLEWVSAISGTGGSAYYADSVKGRFTISRDNSKNTVYLQMNSLRAEDTAVYYCAKGHSSGTNWGQGTLVTVSSGTGGSGGTGSGTGGSTSYVLTQPPSASGTPGQRVTISCSGSSSNIGSNFVYWYQQLPGTAPKLLIYRNNQRPSGVPDRFSGSKSGTSASLAISGLRSEDEADYYCAAWDDSLSGVLFGGGTQLTVL
notes: Vl 133-242); also called single-chain phage antibody SC06-079
B12: SC06-087 (scFv)
scFv: EVQLVESGGGLVKPGGSLRLSCAASGFTFSSNSMNWVRQAPGKGLEWVSFISSSSTYIYYADSVKGRFTISRDNAKNSLYLQMNSLRAEDTAVYYCARESAAGISYDAFDIWGQGTMVTVSSGTGGSGGTGSGTGGSTQSALTQPASVSGSPGQSITISCTGTSSDVGGYKYVSWYQQHPGKAPKLMIYEVSNRPSGVSNRFSGSKSGSTASLTISGLQAEDEADYYCSSYTSSSTLGVFGTGTKVTVL
notes: Vl 139-249); also called single-chain phage antibody SC06-087
B13: SC06-252 (scFv)
scFv: EVQLVETGGGLVQPGGSLRLSCAASGLTFSSYAMSWVRQAPGKGLEWVSALSGSTTFYADSVKGRFTISRDNAKNTLYLQMNSLRAEDTAVYYCARGNYYGMDVWGQGTTVTVSSGTGGSGGTGSGTGGSTSYVLTQPPSASGTPGQRVTISCSGSSSNIGKFYVYWYQQFPGAAPKLLIYSNNQRPSGVPDRFSGSKSGTSASLAISGLQSEDEADYYCAAWDGSLNGYVFGTGTKVTVL
notes: Vl 132-241); also called single-chain phage antibody SC06-252
B14: SC06-242 (scFv)
scFv: EVQLVESGPGLVKPSETLSLTCTVSGGSISSYYWSWIRQPPGKGLEWIGYIYYTGTTNYNPSLNSRVTISADTSKNQFSLKLSSVTAADTAVYYCARGGQTAGVWGKGTTVTVSSGTGGSGGTGSGTGGSTQSVLTQPPSVSVAPGQTARITCGGYNIGRKSVHWYQQKPGLAPVLVVYDNSDRPSGIPARFSGSNSGNTATLTISGTQAMDEADYYCQAWDRGTAVFGTGTKVTVL
notes: Vl 132-237); also called single-chain phage antibody SC06-242
B15: SC06-241 (scFv)
scFv: EVQLVESGGGLVQPGRSLRLSCAASGFTFRSYAMYWVRQAPGKGLEWLALISHDASKMFYADSVKGRFTISRDNSKNTLSLQMNSLTIEDTAVYYCVRERTGYYGAYWGQGTLVTVSSGTGGSGGTGSGTGGSTDIQMTQSPSSLSASVGDRVTLTCRASQGIGTWLAWYQQKPGKAPKLLIYSASSLQSGVPSRFSGSGSGTDFTLSISNLQPEDFATYYCQQANSFPITFGQGTRLEIK
notes: Vl 135-241); also called single-chain phage antibody SC06-241
B16: SC06-089 (scFv)
scFv: EVQLVETGGGLVQPGGSLRLSCAASGFTFSSYSMNWVRQAPGKGLEWVSFISSSSSTIYYADSVKGRFTIARDNAKNSLYLQMNSLRDEDTAVYYCARPVGTGISLFHAFDIWGQGTMVTVSSGTGGSGGTGSGTGGSTQSVLTQPPSVSVAPGQTARITCGGNNIGSKYVHWYQQKPGQAPVLVVYDDSDRPSGIPERFSGSNSGNTATLTISRVEAGDEADFYCQVWDGSSDPVVFGGGTKLTVL
notes: Vl 140-247); also called single-chain phage antibody SC06-089
B17: SC05-166 (scFv)
scFv: QVQLVQSGAEVKKPGASVKVSCKASGYTFTSYAISWVRQAPGQGLEWMGWISAYNGNTNYARKLQGRVTMTTDTSTSTAYMELRSLRSDDTAVYYCARAGLMFTAWFGELWDHGTKDNWFDPWGQGTLVTVSSGTGGSGGTGSGTGGSTNFMLTQPHSVSESPGKTVTISCTRSSGSIASYYVQWYQQRPGSSPTTVIYEDNQRPSGVPDRFSGSIDSSSNSASLTISGLKTEDEADYYCQSYDSSNQVFGGGTKLTVL
notes: Vl 150-259); also called single-chain phage antibody SC05-166
B18: SC06-195 (scFv, V domains shown)
VH: EVQLVESGGGVVQPGRSLRLSCAASGFTFSSYGMHWVRQAPGKGLEWVAVIWYDGSNKYYADSVKGRFTISRDNSQNTLYLQMNSLRAEDTAVYYCTSYAIAATPGQGTLVTVSS
VL: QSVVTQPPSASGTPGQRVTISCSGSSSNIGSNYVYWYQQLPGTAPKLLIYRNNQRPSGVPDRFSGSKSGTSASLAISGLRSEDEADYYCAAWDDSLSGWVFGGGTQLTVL

Target: T1, bovine serum albumin (BSA) (bovine, UniProt P02769 25-607)
T1 construct: Control antigen coated at 1% in PBS (pH 7.4); also called negative control antigen
Experiment: phage ELISA, BSA coated
Experimental: (§1) Selected single-chain phage antibodies that were obtained in the screens described above were validated in ELISA for specific enterococcal binding activity, i.e. binding to one or more enterococcal strains prepared as described supra. 2.5×10⁸ bacteria were coated overnight at 4° C. to Maxisorp™ ELISA plates in 50 μl 50 mM carbonate buffer, pH 9.6. As negative controls, the complex antigens 2% ELK and 1% BSA both in PBS (pH 7.4) were coated. Wells were washed in PBS containing 0.1% (v/v) Tween-20 and blocked with 300 μl PBS containing 2% ELK for at least 1 hour at room temperature. The selected single-chain phage antibodies were incubated for 15 minutes in an equal volume of PBS containing 2% ELK to obtain blocked phage antibodies. The plates were emptied and the blocked single-chain phage antibodies were added to the wells. Incubation was allowed to proceed for one hour at room temperature, the plates were washed in PBS containing 0.1% (v/v) Tween-20 and bound phage antibodies were detected using an anti-M13 antibody conjugated to peroxidase. Absorbance at 492 nm was measured using a spectrophotometer. As a control, the procedure was performed simultaneously without single-chain phage antibody and with a negative control single-chain phage antibody directed against West Nile virus envelope protein (SC04-374).

T1 sequence (P02769 25-607 limits assumed): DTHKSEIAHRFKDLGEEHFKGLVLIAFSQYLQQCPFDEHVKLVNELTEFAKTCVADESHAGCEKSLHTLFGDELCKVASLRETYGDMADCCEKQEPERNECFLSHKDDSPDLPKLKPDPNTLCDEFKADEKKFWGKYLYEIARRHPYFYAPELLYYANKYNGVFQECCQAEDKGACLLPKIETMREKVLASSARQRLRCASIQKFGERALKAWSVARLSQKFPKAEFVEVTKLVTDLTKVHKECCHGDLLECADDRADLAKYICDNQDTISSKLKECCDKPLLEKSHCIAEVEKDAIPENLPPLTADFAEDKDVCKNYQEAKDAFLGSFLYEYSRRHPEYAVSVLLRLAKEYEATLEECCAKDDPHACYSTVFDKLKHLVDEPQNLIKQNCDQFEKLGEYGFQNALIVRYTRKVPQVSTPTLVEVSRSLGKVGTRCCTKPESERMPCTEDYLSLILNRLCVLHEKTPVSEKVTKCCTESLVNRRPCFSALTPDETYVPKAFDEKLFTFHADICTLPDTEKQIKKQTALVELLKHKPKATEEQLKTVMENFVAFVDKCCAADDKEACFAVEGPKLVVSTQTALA

Binder	binding result
B1	no binding
B2	no binding
B3	no binding
B4	no binding
B5	no binding
B6	no binding
B7	no binding
B8	no binding
B9	no binding
B10	no binding
B11	no binding
B12	no binding
B13	no binding
B14	no binding
B15	no binding
B16	no binding

Target: T1, bovine serum albumin (BSA)
Experiment: phage ELISA, 1% BSA coated, anti-M13-HRP detection
Experimental: as §1

Binder	OD492 nm [OD492 nm]
B1	0.049
B2	0.042
B3	0.043
B4	0.055
B5	0.044
B6	0.073
B7	0.047
B8	0.043
B9	0.058
B10	0.044
B11	0.048
B12	0.044
B17	0.104
B13	0.044
B18	0.046
B14	0.043
B15	0.052
B16	0.042
